Measured values taken from patent publication US7173007 (University of California, dated 2007).

Target: the molecule itself
Assay: SDS-PAGE / Western blot, self-association
Method: SDS-PAGE and immunoblotting. The purity of cathelin-like or hCAP18/LL-37 protein was first confirmed by SDS-PAGE followed by Coomassie blue and silver staining. For Western blot, protein was separated by SDS-PAGE and was then transferred to nitrocellulose membranes using the Bio-Rad system. Membranes were blocked for 1 h at room temperature with 0.1% low fat milk in 50 mM Tris-HCl, pH 7.5, 150 mM NaCl, 0.2% Tween-20, and were probed overnight at […] with chicken polyclonal anticathelin-like antibodies (1:15,000) to detect cathelin-like protein or with rabbit anti-LL-37 antibodies (1:6000) to detect full-length hCAP18/LL-37, followed by extensive washing. Immunoreactive materials were detected by enhanced chemiluminescence using horseradish peroxidase conjugated antichicken antibodies (1:20,000) or horseradish peroxidase conjugated antirabbit antibodies (1:5000).

B1: His-tagged cathelin-like fusion protein (before enterokinase digestion), approximately 16 kDa (other, not shown: small tags and cut ends)
chain: QVLSYKEAVLRAIDGINQRSSDANLYRLLDLDPRPTMDGDPDTPKPVSFTVKETVCPRTTQQSPEDCDFKKDGLVKRCMGTVTLNQARGSFDISCDKDNKR
notes: also called His-tagged cathelin-like protein before cleavage; cathelin-like protein before digestion with enterokinase
Question: Does B1 bind?
Answer: binds
